Data: PMC6962393 (2020)

molecular target: FN-67B89, human fibronectin EDB flanked by its surrounding type III domains (human); assay: ELISA
Sequence (chain, as listed by the source): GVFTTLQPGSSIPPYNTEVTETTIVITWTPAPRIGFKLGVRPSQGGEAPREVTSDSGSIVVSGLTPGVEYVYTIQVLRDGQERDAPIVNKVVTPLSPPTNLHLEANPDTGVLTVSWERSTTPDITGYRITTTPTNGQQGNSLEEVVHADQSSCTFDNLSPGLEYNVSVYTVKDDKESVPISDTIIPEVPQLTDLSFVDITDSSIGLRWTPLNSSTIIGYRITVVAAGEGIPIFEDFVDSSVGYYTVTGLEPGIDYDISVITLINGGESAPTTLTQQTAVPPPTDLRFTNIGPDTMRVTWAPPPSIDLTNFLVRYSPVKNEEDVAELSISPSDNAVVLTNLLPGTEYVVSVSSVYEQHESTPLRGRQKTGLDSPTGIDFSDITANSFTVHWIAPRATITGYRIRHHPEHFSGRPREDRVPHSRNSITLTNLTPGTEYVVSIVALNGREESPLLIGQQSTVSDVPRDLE

Row | Binder | Kd
1 | SVCKQANFVRIRLCRRDSDCPGACICRGNGYCG (designed binder) [Trx-MC-FN-060, Thioredoxin-A fusion of cystine-knot miniprotein MC-FN-060] | 20.4 nM
2 | SVCAHYNTIRVRLCRRDSDCPGACICRGNGYCG (designed binder) [Trx-MC-FN-040, Thioredoxin-A fusion of cystine-knot miniprotein MC-FN-040] | 29.4 nM
3 | WKCQPTNGYRIRCRRDSDCPGDCICRGNGYCG (designed binder) [Trx-MC-FN-030, Thioredoxin-A fusion of cystine-knot miniprotein MC-FN-030] | 232 nM
4 | PMCTQRKNRIRLCRRDSDCTGACICRGNGYCG (designed binder) [Trx-MC-FN-010, Thioredoxin-A fusion of cystine-knot miniprotein MC-FN-010] | 10.5 nM
5 | SVCKNVSIMRIRLCRRDSDCPGACICRGNGYCG (designed binder) [Trx-MC-FN-050, Thioredoxin-A fusion of cystine-knot miniprotein MC-FN-050] | 67.8 nM

molecular target: FN-B, recombinant human fibronectin extra domain B (EDB) as a single domain (human); assay: ELISA
Sequence (chain, as listed by the source): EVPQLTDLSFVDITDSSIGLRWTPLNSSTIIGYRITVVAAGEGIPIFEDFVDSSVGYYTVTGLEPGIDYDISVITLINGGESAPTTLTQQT

Row | Binder | Kd
6 | SVCKQANFVRIRLCRRDSDCPGACICRGNGYCG (designed binder) [Trx-MC-FN-060, Thioredoxin-A fusion of cystine-knot miniprotein MC-FN-060] | 10.3 nM
7 | SVCAHYNTIRVRLCRRDSDCPGACICRGNGYCG (designed binder) [Trx-MC-FN-040, Thioredoxin-A fusion of cystine-knot miniprotein MC-FN-040] | 24 nM
8 | WKCQPTNGYRIRCRRDSDCPGDCICRGNGYCG (designed binder) [Trx-MC-FN-030, Thioredoxin-A fusion of cystine-knot miniprotein MC-FN-030] | 234 nM
9 | PMCTQRKNRIRLCRRDSDCTGACICRGNGYCG (designed binder) [Trx-MC-FN-010, Thioredoxin-A fusion of cystine-knot miniprotein MC-FN-010] | 6.07 nM
10 | SVCKNVSIMRIRLCRRDSDCPGACICRGNGYCG (designed binder) [Trx-MC-FN-050, Thioredoxin-A fusion of cystine-knot miniprotein MC-FN-050] | 40.5 nM
